# In publication PMC9482650, “Quantitative fragmentomics allow affinity mapping of interactomes” (Nature Communications, 2022):
# B1: SLCO1C1, Q9NYB5 (peptide)
# chain: NYWPGKETQL
# B2: HTLV1-TAX1, P03409 (peptide)
# chain: SEKHFRETEV
# Biological target: RIMS2, Q9UQ26
# Test: holdup assay
# Design: key: below the threshold = too weak to quantify, mostly under pKd 3.1 to 4
# Conditions: plain residues with an end cap or a label only (N-terminal biotin on a linker: ttds)
# RIMS2, Q9UQ26, sequence (Q9UQ26 637-758): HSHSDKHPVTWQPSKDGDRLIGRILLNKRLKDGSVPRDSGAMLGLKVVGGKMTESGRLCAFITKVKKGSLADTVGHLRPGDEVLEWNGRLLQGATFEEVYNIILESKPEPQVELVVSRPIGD
row,Binder,pKd
1,B1,below the threshold
2,B2,below the threshold

# Biological target: T1, APBA3_2, O96018
# T1 sequence (O96018 480-570, limits assumed, looked up): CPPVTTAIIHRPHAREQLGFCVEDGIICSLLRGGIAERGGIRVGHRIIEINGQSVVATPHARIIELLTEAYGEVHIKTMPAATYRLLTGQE
# Test: holdup assay
# Design: key: below the threshold = too weak to quantify, mostly under pKd 3.1 to 4
# Conditions: plain residues with an end cap or a label only (N-terminal biotin on a linker: ttds)
row,Binder,pKd
1,B1,below the threshold
2,B2,below the threshold

# Biological target: T2, DVL1, O14640
# T2 sequence (O14640 246-333, limits assumed, looked up): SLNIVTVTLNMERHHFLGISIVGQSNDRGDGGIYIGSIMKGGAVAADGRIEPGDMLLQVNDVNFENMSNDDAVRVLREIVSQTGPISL
# Test: holdup assay
# Design: key: below the threshold = too weak to quantify, mostly under pKd 3.1 to 4
# Conditions: plain residues with an end cap or a label only (N-terminal biotin on a linker: ttds)
row,Binder,pKd
1,B1,below the threshold
2,B2,below the threshold

# Biological target: T3, PDZD4, Q76G19
# T3 sequence (Q76G19 125-224, limits assumed, looked up): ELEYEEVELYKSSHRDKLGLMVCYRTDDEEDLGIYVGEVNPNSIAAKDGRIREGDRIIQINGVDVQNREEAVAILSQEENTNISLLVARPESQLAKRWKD
# Test: holdup assay
# Design: key: below the threshold = too weak to quantify, mostly under pKd 3.1 to 4
# Conditions: plain residues with an end cap or a label only (N-terminal biotin on a linker: ttds)
row,Binder,pKd
1,B1,below the threshold
2,B2,below the threshold

# Biological target: T4, PCLO, Q9Y6V0
# T4 sequence (Q9Y6V0 4491-4600, limits assumed, looked up): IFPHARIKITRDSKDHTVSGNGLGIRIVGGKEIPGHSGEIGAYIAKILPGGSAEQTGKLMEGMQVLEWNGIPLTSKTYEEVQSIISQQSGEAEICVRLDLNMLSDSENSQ
# Test: holdup assay
# Design: key: below the threshold = too weak to quantify, mostly under pKd 3.1 to 4
# Conditions: plain residues with an end cap or a label only (N-terminal biotin on a linker: ttds)
row,Binder,pKd
1,B1,below the threshold
2,B2,below the threshold

# Biological target: T5, MPP5, Q8N3R9
# T5 sequence (Q8N3R9 251-346, limits assumed, looked up): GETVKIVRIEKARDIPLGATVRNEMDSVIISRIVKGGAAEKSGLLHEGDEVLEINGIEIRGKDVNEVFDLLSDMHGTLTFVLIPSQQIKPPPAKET
# Test: holdup assay
# Design: key: below the threshold = too weak to quantify, mostly under pKd 3.1 to 4
# Conditions: plain residues with an end cap or a label only (N-terminal biotin on a linker: ttds)
row,Binder,pKd
1,B1,below the threshold
2,B2,below the threshold

# Biological target: GRIP2_2, Q9C0E4
# Sequence (Q9C0E4 137-245): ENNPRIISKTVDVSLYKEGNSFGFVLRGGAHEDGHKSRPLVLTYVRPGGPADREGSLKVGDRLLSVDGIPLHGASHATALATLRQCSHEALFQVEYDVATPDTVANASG
# Test: holdup assay
# Design: key: below the threshold = too weak to quantify, mostly under pKd 3.1 to 4
# Conditions: plain residues with an end cap or a label only (N-terminal biotin on a linker: ttds)
row,Binder,pKd
1,B1,below the threshold
2,B2,below the threshold

# Biological target: MAGI3_5, Q5TCQ9
# Sequence (Q5TCQ9 847-941): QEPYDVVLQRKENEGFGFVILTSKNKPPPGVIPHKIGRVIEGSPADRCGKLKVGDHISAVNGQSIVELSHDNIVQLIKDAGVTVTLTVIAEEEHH
# Test: holdup assay
# Design: key: below the threshold = too weak to quantify, mostly under pKd 3.1 to 4
# Conditions: plain residues with an end cap or a label only (N-terminal biotin on a linker: ttds)
row,Binder,pKd
1,B1,below the threshold
2,B2,4.86

# Biological target: MAGI3_6, Q5TCQ9
# Sequence (Q5TCQ9 1014-1103): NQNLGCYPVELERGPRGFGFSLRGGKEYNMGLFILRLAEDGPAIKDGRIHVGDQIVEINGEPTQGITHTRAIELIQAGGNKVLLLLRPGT
# Test: holdup assay
# Design: key: below the threshold = too weak to quantify, mostly under pKd 3.1 to 4
# Conditions: plain residues with an end cap or a label only (N-terminal biotin on a linker: ttds)
row,Binder,pKd
1,B1,4.36
2,B2,4.54

# Biological target: T6, MPDZ_2, O75970
# T6 sequence (O75970 252-347, limits assumed, looked up): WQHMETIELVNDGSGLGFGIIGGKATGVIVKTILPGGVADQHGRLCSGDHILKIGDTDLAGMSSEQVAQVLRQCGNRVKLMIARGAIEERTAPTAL
# Test: holdup assay
# Design: key: below the threshold = too weak to quantify, mostly under pKd 3.1 to 4
# Conditions: plain residues with an end cap or a label only (N-terminal biotin on a linker: ttds)
row,Binder,pKd
1,B1,below the threshold
2,B2,below the threshold

# Biological target: T7, MPDZ_12, O75970
# T7 sequence (O75970 1857-1958, limits assumed, looked up): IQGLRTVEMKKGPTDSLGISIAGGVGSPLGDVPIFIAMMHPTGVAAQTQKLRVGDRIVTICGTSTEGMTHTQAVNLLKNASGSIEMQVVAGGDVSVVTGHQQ
# Test: holdup assay
# Design: key: below the threshold = too weak to quantify, mostly under pKd 3.1 to 4
# Conditions: plain residues with an end cap or a label only (N-terminal biotin on a linker: ttds)
row,Binder,pKd
1,B1,below the threshold
2,B2,below the threshold

# Biological target: T8, PDZD8, Q8NEN9
# T8 sequence (Q8NEN9 361-459, limits assumed, looked up): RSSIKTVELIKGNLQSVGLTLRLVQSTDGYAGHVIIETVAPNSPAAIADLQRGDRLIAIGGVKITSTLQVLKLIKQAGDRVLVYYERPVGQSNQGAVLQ
# Test: holdup assay
# Design: key: below the threshold = too weak to quantify, mostly under pKd 3.1 to 4
# Conditions: plain residues with an end cap or a label only (N-terminal biotin on a linker: ttds)
row,Binder,pKd
1,B1,below the threshold
2,B2,below the threshold

# Biological target: NHERF4_3, Q86UT5
# Sequence (Q86UT5 325-412): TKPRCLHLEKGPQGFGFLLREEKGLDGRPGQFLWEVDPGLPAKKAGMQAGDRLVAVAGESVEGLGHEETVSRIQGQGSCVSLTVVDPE
# Test: holdup assay
# Design: key: below the threshold = too weak to quantify, mostly under pKd 3.1 to 4
# Conditions: plain residues with an end cap or a label only (N-terminal biotin on a linker: ttds)
row,Binder,pKd
1,B1,4.56
2,B2,3.83

# Biological target: PTPN13_2, Q12923
# Sequence (Q12923 1363-1462): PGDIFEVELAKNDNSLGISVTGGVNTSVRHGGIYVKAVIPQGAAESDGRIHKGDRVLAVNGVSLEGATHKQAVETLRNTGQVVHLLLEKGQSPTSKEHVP
# Test: holdup assay
# Design: key: below the threshold = too weak to quantify, mostly under pKd 3.1 to 4
# Conditions: plain residues with an end cap or a label only (N-terminal biotin on a linker: ttds)
row,Binder,pKd
1,B1,below the threshold
2,B2,below the threshold

# Biological target: MAGI3_3, Q5TCQ9
# Sequence (Q5TCQ9 572-655): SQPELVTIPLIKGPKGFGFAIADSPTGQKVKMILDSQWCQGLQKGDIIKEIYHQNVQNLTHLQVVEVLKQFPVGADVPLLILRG
# Test: holdup assay
# Design: key: below the threshold = too weak to quantify, mostly under pKd 3.1 to 4
# Conditions: plain residues with an end cap or a label only (N-terminal biotin on a linker: ttds)
row,Binder,pKd
1,B1,below the threshold
2,B2,4.36

# Biological target: Inadl_7, Q8NI35
# Sequence (Q8NI35 1219-1332): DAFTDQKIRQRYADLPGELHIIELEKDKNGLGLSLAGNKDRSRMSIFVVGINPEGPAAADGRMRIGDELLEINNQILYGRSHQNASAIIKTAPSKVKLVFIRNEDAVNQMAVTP
# Test: holdup assay
# Design: key: below the threshold = too weak to quantify, mostly under pKd 3.1 to 4
# Conditions: plain residues with an end cap or a label only (N-terminal biotin on a linker: ttds)
row,Binder,pKd
1,B1,below the threshold
2,B2,below the threshold

# Biological target: T9, MAGI2_1, Q86UL8
# T9 sequence (Q86UL8 12-111, limits assumed, looked up): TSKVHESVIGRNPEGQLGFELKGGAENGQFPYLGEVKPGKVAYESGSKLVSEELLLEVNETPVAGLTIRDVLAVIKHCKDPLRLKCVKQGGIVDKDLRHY
# Test: holdup assay
# Design: key: below the threshold = too weak to quantify, mostly under pKd 3.1 to 4
# Conditions: plain residues with an end cap or a label only (N-terminal biotin on a linker: ttds)
row,Binder,pKd
1,B1,below the threshold
2,B2,below the threshold

# Biological target: TJP1_3, Q07157
# Sequence (Q07157 416-512): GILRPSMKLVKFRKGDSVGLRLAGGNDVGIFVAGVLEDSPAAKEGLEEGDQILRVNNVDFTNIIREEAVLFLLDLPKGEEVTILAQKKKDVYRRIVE
# Test: holdup assay
# Design: key: below the threshold = too weak to quantify, mostly under pKd 3.1 to 4
# Conditions: plain residues with an end cap or a label only (N-terminal biotin on a linker: ttds)
row,Binder,pKd
1,B1,below the threshold
2,B2,below the threshold

# Biological target: T10, SHROOM3, Q8TF72
# T10 sequence (Q8TF72 20-120, limits assumed, looked up): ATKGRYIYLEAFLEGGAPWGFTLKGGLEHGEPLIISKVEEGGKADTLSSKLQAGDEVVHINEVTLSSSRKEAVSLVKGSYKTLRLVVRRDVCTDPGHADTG
# Test: holdup assay
# Design: key: below the threshold = too weak to quantify, mostly under pKd 3.1 to 4
# Conditions: plain residues with an end cap or a label only (N-terminal biotin on a linker: ttds)
row,Binder,pKd
1,B1,below the threshold
2,B2,below the threshold

# Biological target: SDCBP_1, O00560
# Sequence (O00560 111-198): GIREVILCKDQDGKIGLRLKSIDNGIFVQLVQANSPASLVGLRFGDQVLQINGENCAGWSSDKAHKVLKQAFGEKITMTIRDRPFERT
# Test: holdup assay
# Design: key: below the threshold = too weak to quantify, mostly under pKd 3.1 to 4
# Conditions: plain residues with an end cap or a label only (N-terminal biotin on a linker: ttds)
row,Binder,pKd
1,B1,below the threshold
2,B2,below the threshold

# Biological target: PDZD9, Q8IXQ8
# Sequence (Q8IXQ8 23-120): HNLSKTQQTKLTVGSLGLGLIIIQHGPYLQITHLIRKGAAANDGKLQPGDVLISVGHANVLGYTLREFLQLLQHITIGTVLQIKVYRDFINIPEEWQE
# Test: holdup assay
# Design: key: below the threshold = too weak to quantify, mostly under pKd 3.1 to 4
# Conditions: plain residues with an end cap or a label only (N-terminal biotin on a linker: ttds)
row,Binder,pKd
1,B1,below the threshold
2,B2,below the threshold

# Biological target: PARD3_1, Q8TEW0
# Sequence (Q8TEW0 264-372): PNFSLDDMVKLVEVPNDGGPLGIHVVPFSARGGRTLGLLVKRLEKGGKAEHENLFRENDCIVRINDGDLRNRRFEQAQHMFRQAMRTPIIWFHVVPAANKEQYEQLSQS
# Test: holdup assay
# Design: key: below the threshold = too weak to quantify, mostly under pKd 3.1 to 4
# Conditions: plain residues with an end cap or a label only (N-terminal biotin on a linker: ttds)
row,Binder,pKd
1,B1,below the threshold
2,B2,below the threshold

# Biological target: T11, PTPN4, P29074
# T11 sequence (P29074 512-599, limits assumed, looked up): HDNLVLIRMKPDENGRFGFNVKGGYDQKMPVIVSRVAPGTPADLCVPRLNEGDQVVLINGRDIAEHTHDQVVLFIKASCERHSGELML
# Test: holdup assay
# Design: key: below the threshold = too weak to quantify, mostly under pKd 3.1 to 4
# Conditions: plain residues with an end cap or a label only (N-terminal biotin on a linker: ttds)
row,Binder,pKd
1,B1,4.91
2,B2,4.77

# Biological target: T12, SHROOM2, Q13796
# T12 sequence (Q13796 21-118, limits assumed, looked up): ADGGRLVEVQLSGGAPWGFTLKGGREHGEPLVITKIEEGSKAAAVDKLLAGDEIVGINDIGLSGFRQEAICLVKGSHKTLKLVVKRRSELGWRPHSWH
# Test: holdup assay
# Design: key: below the threshold = too weak to quantify, mostly under pKd 3.1 to 4
# Conditions: plain residues with an end cap or a label only (N-terminal biotin on a linker: ttds)
row,Binder,pKd
1,B1,4.98
2,B2,below the threshold

# Biological target: MAST3, O60307
# Sequence (O60307 945-1048): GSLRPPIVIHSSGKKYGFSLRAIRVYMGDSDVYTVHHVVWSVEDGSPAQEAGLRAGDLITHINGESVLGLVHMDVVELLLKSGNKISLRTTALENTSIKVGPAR
# Test: holdup assay
# Design: key: below the threshold = too weak to quantify, mostly under pKd 3.1 to 4
# Conditions: plain residues with an end cap or a label only (N-terminal biotin on a linker: ttds)
row,Binder,pKd
1,B1,below the threshold
2,B2,below the threshold
